Molecular target: SARS-CoV-2 spike protein receptor binding domain (RBD) (SARS-CoV-2, UniProt P0DTC2)
Assay: ELISA

B1: bovine ACE2-Fc (bovine angiotensin I converting enzyme 2 fused to human IgG1 Fc) (Fc fusion)
chain: QSTTEEQAKTFLEKFNHEAEDLSYQSSLASWNYNTNITDENVQKMNEARAKWSAFYEEQSRMAKTYSLEEIQNLTLKRQLKALQHSGTSALSAEKSKRLNTILNKMSTIYSTGKVLDPNTQECLALEPGLDDIMENSRDYNRRLWAWEGWRAEVGKQLRPLYEEYVVLENEMARANNYEDYGDYWRGDYEVTGAGDYDYSRDQLMKDVERTFAEIKPLYEQLHAYVRAKLMHTYPSYISPTGCLPAHLLGDMWGRFWTNLYSLTVPFEHKPSIDVTEKMENQSWDAERIFKEAEKFFVSISLPYMTQGFWDNSMLTEPGDGRKVVCHPTAWDLGKGDFRIKMCTKVTMDDFLTAHHEMGHIQYDMAYAAQPYLLRNGANEGFHEAVGEIMSLSAATPHYLKALGLLAPDFHEDNETEINFLLKQALTIVGTLPFTYMLEKWRWMVFKGEIPKQQWMEKWWEMKREIVGVVEPLPHDETYCDPACLFHVAEDYSFIRYYTRTIYQFQFHEALCKTAKHEGALFKCDISNSTEAGQRLLQMLRLGKSEPWTLALENIVGIKTMDVKPLLNYFEPLFTWLKEQNRNSFVGWSTEWTPYSDQSIKVRISLKSALGENAYEWNDNEMYLFQSSVAYAMRKYFSEARNETVLFGEDNVWVSDKKPRISFKFFVTSPNNVSDIIPRTEVENAIRLSRDRINDVFQLDDNSLEFLGIQPTLGPPYEPPVT
EC50: 1.3 nM

From paper doi:10.1101/2020.10.25.354548 (bioRxiv, 2020)
